How the values were obtained:
[1] = molecular target: H2-D^b class I heavy chain, endogenous on RMA-S cells (mouse (endogenous in RMA-S)); assay: peptide-induced MHC class I surface stabilization assay
[2] = molecular target: DLA-88*50801 heavy chain with a FLAG epitope tag at the carboxyl terminus, on BARC3 cells (canine); assay: flow cytometry on cells
[3] = molecular target: DLA-88*50801 heavy chain with a FLAG epitope tag at the carboxyl terminus, on BARC3 cells (canine); assay: dissociation of peptide-MHC complexes from the cell surface under brefeldin A

H2-D^b class I heavy chain, endogenous on RMA-S cells (mouse (endogenous in RMA-S)), sequence (P01899 25-362): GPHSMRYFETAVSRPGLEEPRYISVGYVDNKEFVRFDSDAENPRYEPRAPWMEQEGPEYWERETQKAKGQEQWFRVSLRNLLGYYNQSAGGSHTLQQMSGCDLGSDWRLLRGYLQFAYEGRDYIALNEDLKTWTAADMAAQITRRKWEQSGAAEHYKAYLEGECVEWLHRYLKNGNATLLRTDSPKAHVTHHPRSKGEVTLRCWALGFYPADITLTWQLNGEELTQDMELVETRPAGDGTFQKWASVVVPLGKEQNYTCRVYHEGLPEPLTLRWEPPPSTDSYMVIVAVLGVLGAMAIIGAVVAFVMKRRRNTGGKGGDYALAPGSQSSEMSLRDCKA

NP396 peptide (LCMV-derived immunodominant peptide)
MFI of anti-H2-D^b staining of peptide-loaded RMA-S cells [1]: 217 MFI

murine β2-microglobulin (from UniProt P01887 21-119) (natural protein)
MFI of anti-murine β2M staining (K11-pulsed BARC3 cells) [2]: 281 MFI

KLFSGELTK [K9 peptide]
dissociation half-life (t1/2), first experiment [3]: 1.9 h

RFLDKDGFIDK [K11 peptide]
dissociation half-life (t1/2), first experiment [3]: 6 h

Source: PMC3494747
